These results are taken from patent publication US20240141061A1, “NOVEL ANTIBODY AGAINST CD55 AND USE THEREOF” (SG MEDICAL INC, priority 2021, published 2024).

Where a chain is given by its changes, count along the chain named. In names and notes the source's numbering stands.

First the molecules themselves.
B1: EP-10H scFv clone displayed on phage (scFv, V domains shown)
VH: EVQLVESGGGLVQPGGSLRLSCAASGFTFSDRGMAWVRQAPGKGLEWVSGISSSGRYTYYAPAVKGRATISRDNSKNTLYLQMNSLRAEDTAVYYCAKNAVAGGWHAAYIDAWGQGTTVTVSS
VL: SYELTQPPSVSVSPGQTASITCSGGGGSYGWYQQKPGQSPVTVIYWNDKRPSGIPERFSGSKSGNTATLTISGTQAMDEADYYCGGWDSSTYAIFGGGTKLTVL
notes: In the screening ELISA it stood as scFv on phage (pComb3x)
B2: EP-9B scFv clone displayed on phage (scFv, V domains shown)
VH: B1 VH with A35V, A40S, S85N
VL: B1 VL
notes: as for B1
B3: 3R-2-1H scFv clone displayed on phage (scFv, V domains shown)
VH: B1 VH with A23V, S25R, A68T
VL: B1 VL
notes: as for B1
B4: EP-1E scFv clone displayed on phage (scFv, V domains shown)
VH: B1 VH
VL: B1 VL with Y32F, D48N
notes: as for B1
B5: EP-1F scFv clone displayed on phage (scFv, V domains shown)
VH: B1 VH with V5A
VL: B1 VL
notes: as for B1
B6: EP-9B: anti-CD55 antibody screened from G4-1H random mutation library, VL SEQ ID NO 4, VH SEQ ID NO 21 (antibody, V domains shown)
VH: B1 VH with A35V, A40S, S85N
VL: B1 VL
modifications: EP-9B_VH; G4-1H_VL
B7: G4-1H: humanized 4-1H anti-CD55 antibody, VL SEQ ID NO 4, VH SEQ ID NO 5 (antibody, V domains shown)
VH: B1 VH with V101G
VL: B1 VL
modifications: G4-1H_VH; G4-1H_VL
B8: EP-1E: anti-CD55 antibody screened from G4-1H random mutation library, VL SEQ ID NO 18, VH SEQ ID NO 19 (antibody, V domains shown)
VH: B1 VH
VL: B1 VL with Y32F, D48N
modifications: EP-1E_VH; EP-1E_VL
B9: EP-1F: anti-CD55 antibody screened from G4-1H random mutation library, VL SEQ ID NO 4, VH SEQ ID NO 20 (antibody, V domains shown)
VH: B1 VH with V5A
VL: B1 VL
modifications: EP-1F_VH; G4-1H_VL
B10: 3R-2-1H: anti-CD55 antibody screened from G4-1H random mutation library, VL SEQ ID NO 4, VH SEQ ID NO 22 (antibody, V domains shown)
VH: B1 VH with A23V, S25R, A68T
VL: B1 VL
modifications: 3R-2-1H_VH; G4-1H_VL
B11: 10H(M): EP-10H backbone with H100A site replaced with M, VH SEQ ID NO 29, EP-10H light chain (antibody, V domains shown)
VH: B1 VH with V5A, V101M
VL: B1 VL
B12: 10H(F): EP-10H backbone with H100A site replaced with F, VH SEQ ID NO 28, EP-10H light chain (antibody, V domains shown)
VH: B1 VH with V5A, V101F
VL: B1 VL
B13: 10H(L): EP-10H backbone with H100A site replaced with L, VH SEQ ID NO 27, EP-10H light chain (antibody, V domains shown)
VH: B1 VH with V5A, V101L
VL: B1 VL
B14: 10H(I) (antibody, V domains shown)
VH: B1 VH with V101I
VL: B1 VL
B15: 10H(A) (antibody, V domains shown)
VH: B1 VH with V101A
VL: B1 VL
B16: 3R-2-1H (antibody, V domains shown)
VH: B1 VH with A23V, S25R, A68T
VL: B1 VL
notes: Tested as full-length IgG
B17: EP-9B (antibody, V domains shown)
VH: B1 VH with A35V, A40S, S85N
VL: B1 VL
notes: Tested as full-length IgG
B18: EP-1F (antibody, V domains shown)
VH: B1 VH with V5A
VL: B1 VL
notes: Tested as full-length IgG
B19: EP-1E (antibody, V domains shown)
VH: B1 VH
VL: B1 VL with Y32F, D48N
notes: Tested as full-length IgG

The first assay deals with T1, recombinant human CD55 (R&D Systems 2009-CD/CF) (human, UniProt P08174 35-353).
T1 construct: Bought recombinant protein coated on ELISA plates; also called decay-accelerating factor; DAF
T1 sequence (looked up): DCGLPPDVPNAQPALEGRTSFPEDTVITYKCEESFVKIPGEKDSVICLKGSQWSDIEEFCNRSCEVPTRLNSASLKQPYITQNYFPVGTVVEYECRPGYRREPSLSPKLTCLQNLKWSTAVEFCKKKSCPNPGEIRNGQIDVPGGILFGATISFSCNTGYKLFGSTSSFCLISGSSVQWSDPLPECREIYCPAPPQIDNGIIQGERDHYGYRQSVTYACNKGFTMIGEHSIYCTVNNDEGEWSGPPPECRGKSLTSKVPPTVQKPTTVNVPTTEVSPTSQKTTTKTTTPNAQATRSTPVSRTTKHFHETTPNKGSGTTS
The assay is described as follows: phage ELISA, recombinant human CD55 coated, anti-M13-HRP; 4-1H phage clone as control.
Settings: not given
The method, then: 192 clones screened from the products of the third and fourth biopanning were incubated overnight at 37° C. on a 96-deep well plate after adding 100 μg/mL carbenicillin, 70 μg/mL kanamycin and VCSM13 helper phage to induce the proliferation of phages wherein the antibody was expressed. After centrifuging the culture, the supernatant containing the phage was incubated at 37° C. for 2 hours on an ELISA plate coated with recombinant human CD55 (R&D Systems 2009-CD/CF, USA). Then, the antibody binding to CD55 was identified by ELISA using HRP-conjugated anti-M13 antibody (Merck, USA) as a secondary antibody.
Background: In an ELISA, binding on a coated surface is turned into a signal by an enzyme label.
B1: the binding result was “binds”.

For the molecule B2, the binding result was “binds”.

For the molecule B3, the binding result is recorded as “binds”.

With B4, the binding result is recorded as “binds”.

Regarding B5, the binding result is “binds”.

A further assay concerns the target T2, recombinant human CD55 (Homo sapiens, UniProt P08174).
T2 construct: purchased R&D Systems 2009-CD/CF
T2 sequence (P08174 35-353): T1 sequence (looked up)
Description: Indirect ELISA, affinity for CD55. Format: binding. The following applies: full-length antibody 0.0001-10 nM on CD55 coated at 1 μg/mL. On the procedure:
The binding ability of the G4-1H monoclonal antibody prepared in Example 2 for CD55 was investigated by indirect ELISA. For the indirect ELISA, recombinant human CD55 (R&D Systems, USA) diluted to 1 μg/mL in 50 μL of PBS was added to a 96-well immunoplate (Corning, USA) and then adsorbed by keeping at 4° C. overnight. After incubation for 1 hour at room temperature in a buffer containing 3% bovine serum albumin (Millipore, USA), followed by washing with a buffer containing 0.5% Tween 20 (Amresco, USA) three times, 50 μL of the serially diluted antibody (0.0001, 0.0003, 0.001, 0.003, 0.01, 0.03, 0.1, 0.3, 1, 3 and 10 nM) was treated per well. After incubation at room temperature for 2 hours for antibody-antigen binding, the antibody-antigen complex was washed three times with a buffer containing 0.5% Tween 20 (Amresco, USA). After treating with 50 μL of anti-human immunoglobulin Fc-HRP antibody (Jackson Immunoresearch, USA) diluted to 1:3,000 per well, followed by incubation at room temperature for 1 hour and washing three times with a buffer containing 0.5% Tween 20 (Amresco, USA), color development was conducted for 10 minutes by adding 50 μL of 3,3′,5,5′-tetramethylbenzidine (TMB) (ThermoFisher Scientific, USA).
The affinity of the antibodies screened in Example 6 for CD55 was investigated by indirect ELISA. The indirect ELISA was conducted in the same manner as in Example 3.
The affinity of the antibodies prepared in Example 8 for CD55 was investigated by indirect ELISA. The indirect ELISA was conducted in the same manner as in Example 3. […]
B6: the “affinity for CD55 (indirect ELISA, absorbance at 450 nm)” value (shortened to “affinity for CD55”) was “affinity higher than that of 4-1H but lower than those of other antibodies”.

In the case of B7, the “affinity for CD55” value is recorded as “lower affinity for CD55 than 4-1H”.

With B8, the “affinity for CD55” value is on record as “comparable affinity”.

B9: the “affinity for CD55” value was “comparable affinity”.

Turning to B10, the “affinity for CD55” value is “comparable affinity”.

Take B11: the “affinity for CD55” value was “lower affinity than EP-10H”.

Take B12: the “affinity for CD55” value is “lower affinity than EP-10H”.

Turning to B13, the “affinity for CD55” value is “lower affinity than EP-10H”.

For the molecule B14, the “affinity for CD55” value is listed as “lower affinity than EP-10H”.

For B15, the “affinity for CD55” value is reported as “lower affinity than EP-10H”.

The next assay deals with T1, recombinant human CD55 (R&D Systems …). Description: indirect ELISA, recombinant human CD55 coated.
Settings: not given
Regarding B16, the binding result is reported as “binds”.

On to B14, for which the binding result was “binds”.

For the molecule B17, the binding result is reported as “binds”.

As for B15, the binding result is reported as “binds”.

With B18, the binding result is “binds”.

Turning to B19, the binding result is reported as “binds”.
